# Assays:
# [1] = test system: immune cells; assay: Nutritional intervention on immune cells in tumor burdened animals with and without chemotherapy (FIG. 11); assay type: in vivo
# Source text: FIG. 11 illustrates a graph of the effect of nutritional intervention on immune cells in tumor burdened animals with and without chemotherapy in accordance with an embodiment of the present disclosure.
# [2] = test system: red blood cell, white blood cell and immune cell populations; assay: Haematological evaluation and flow cytometric analysis, test diets with chemotherapy (Example 2); assay type: in vivo, mice
# Description: The animals were distributed into 7 different group diets. There was a control group that received the diet AIN 93 for adult rodents (maintenance). Test diets were administered in doses appropriate to the animal model: (a) Ctrl diet were supplemented with 1% (w/w) L-arginine, (b) 25% of the protein was replaced by glutamine, (c) 1% (w/w) L-citrulline, (d) 1 g/Kg body weight with active hexose correlated compound, (e) 20 mg/day of RNA nucleotides and (f) 25 mg/day of lactoferrin. […] Control animals without chemotherapeutic treatment were run in parallel for all tested diets. Body weight was assessed every two days. Blood samples were obtained at day 2, 4 and 10 after the chemo-treatment and at sacrifice (14 or 28 days). An autopsy was performed and tumor mass was assessed.
molecule,measurement,setting,value
"lactoferrin: diet with 25 mg/day of lactoferrin (protein, UniProt P24627 20-708, looked up) Lactotransferrin: APRKNVRWCTISQPEWFKCRRWQWRMKKLGAPSITCVRRAFALECIRAIAEKKADAVTLDGGMVFEAGRDPYKLRPVAAEIYGTKESPQTHYYAVAVVKKGSNFQLDQLQGRKSCHTGLGRSAGWIIPMGILRPYLSWTESLEPLQGAVAKFFSASCVPCIDRQAYPNLCQLCKGEGENQCACSSREPYFGYSGAFKCLQDGAGDVAFVKETTVFENLPEKADRDQYELLCLNNSRAPVDAFKECHLAQVPSHAVVARSVDGKEDLIWKLLSKAQEKFGKNKSRSFQLFGSPPGQRDLLFKDSALGFLRIPSKVDSALYLGSRYLTTLKNLRETAEEVKARYTRVVWCAVGPEEQKKCQQWSQQSGQNVTCATASTTDDCIVLVLKGEADALNLDGGYIYTAGKCGLVPVLAENRKSSKHSSLDCVLRPTEGYLAVAVVKKANEGLTWNSLKDKKSCHTAVDRTAGWNIPMGLIVNQTGSCAFDEFFSQSCAPGADPKSRLCALCAGDDQGLDKCVPNSKEKYYGYTGAFRCLAEDVGDVAFVKNDTVWENTNGESTADWAKNLNREDFRLLCLDGTRKPVTEAQSCHLAVAPNHAVVSRSDRAAHVKQVLLHQQALFGKNGKNCPDKFCLFKSETKNLLFNDNTECLAKLGGRPTYEEYLGTEYVTAIANLKKCSTSPLLEACAFLTR",toxicity (immune cells),[1]; chemotherapy treated group as compared to the control (FIG. 11),less toxicity
same,immune cell population / concentration,[1]; during the second phase (tumor-induced toxicity),increase in their immune cell population
same,Global lymphocyte population,"[2]; following chemotherapy, supplemented diets",less depressed
same,leukocytic increase (white blood cell counts),"[2]; oxaliplatin treated animals, supplemented diet 25 mg/day",tended to be higher

# Source: US9827216B2, “Nutritional support to prevent and/or mitigate bone marrow toxicity from a cancerous tumor” (Nestec S.A., priority 2008, dated 2017)
